Source: patent US20260201038A1 (CELLABMED, published 2026)

Assays:
[1] = biological target: B7-H3 on human cancer cells (human) (UniProt Q5ZPR3); test: flow cytometry on A172 brain tumor cells; control (secondary antibody only) < 25%
PTGAVEVQVPEDPVV = biological target: T1, PTGAVEVQVPEDPVV; test: peptide microarray, 15-mers of human 4Ig B7-H3; panel Ig-like-V type 2
T1 construct: 15-mer of human 4Ig B7-H3 on the peptide microarray, panel Ig-like-V type 2
T1 peptide: PTGAVEVQVPEDPVV
Protocol: (§1) It was confirmed that G2D IgG has linear epitopes since G2D was verified to recognize 4lg B7-H3 through western blot (FIG. 10a). Therefore, linear epitope mapping was conducted by Pepperprint GmbH (Germany). After preparing a peptide microarray from the 15 4lg B7-H3 amino acids with 14-amino acid overlaps, the antibodies binding to peptides were identified using secondary antibodies (FIG. 10b). As a result, it was confirmed that G2D IgG binds to a peptide having a sequence of EVQVP (FIG. 10c). EVQVP is located in the Ig-like V-type1 and Ig-like V-type2 domains of 4lg B7-H3 (FIGS. 10d and 10e). When the epitopes of the control antibody enoblituzumab were identified by the same method, it was confirmed that the epitopes include the sequence of GYPEAE (FIG. 10b), and GYPEAE is located in the Ig-like C2-type1 and Ig-like C2-type2 domains of 4lg B7-H3 (FIGS. 10d and 10e). As a result, it was confirmed that G2D IgG and the control antibody enoblituzumab have different epitopes.

QRSPTGAVEVQVPED = biological target: T2, QRSPTGAVEVQVPED; test: as above
T2 construct: 15-mer of human 4Ig B7-H3 on the peptide microarray, panel Ig-like-V type 2
T2 peptide: QRSPTGAVEVQVPED
Protocol: as §1

TPQRSPTGAVEVQVP = biological target: T3, TPQRSPTGAVEVQVP; test: as above
T3 construct: 15-mer of human 4Ig B7-H3 on the peptide microarray, panel Ig-like-V type 2
T3 peptide: TPQRSPTGAVEVQVP
Protocol: as §1

SPTGAVEVQVPEDPV = biological target: T4, SPTGAVEVQVPEDPV; test: as above
T4 construct: 15-mer of human 4Ig B7-H3 on the peptide microarray, panel Ig-like-V type 2
T4 peptide: SPTGAVEVQVPEDPV
Protocol: as §1

VEVQVPEDPVVALVG = biological target: T5, VEVQVPEDPVVALVG; test: as above
T5 construct: 15-mer of human 4Ig B7-H3 on the peptide microarray, panel Ig-like-V type 2
T5 peptide: VEVQVPEDPVVALVG
Protocol: as §1

RSPTGAVEVQVPEDP = biological target: T6, RSPTGAVEVQVPEDP; test: as above
T6 construct: 15-mer of human 4Ig B7-H3 on the peptide microarray, panel Ig-like-V type 2
T6 peptide: RSPTGAVEVQVPEDP
Protocol: as §1

TGAVEVQVPEDPVVA = biological target: T7, TGAVEVQVPEDPVVA; test: as above
T7 construct: 15-mer of human 4Ig B7-H3 on the peptide microarray, panel Ig-like-V type 2
T7 peptide: TGAVEVQVPEDPVVA
Protocol: as §1

PQRSPTGAVEVQVPE = biological target: T8, PQRSPTGAVEVQVPE; test: as above
T8 construct: 15-mer of human 4Ig B7-H3 on the peptide microarray, panel Ig-like-V type 2
T8 peptide: PQRSPTGAVEVQVPE
Protocol: as §1

GAVEVQVPEDPVVAL = biological target: T9, GAVEVQVPEDPVVAL; test: as above
T9 construct: 15-mer of human 4Ig B7-H3 on the peptide microarray, panel Ig-like-V type 2
T9 peptide: GAVEVQVPEDPVVAL
Protocol: as §1

TGALEVQVPEDPVVA = biological target: T10, TGALEVQVPEDPVVA; test: peptide microarray, 15-mers of human 4Ig B7-H3; panel Ig-like-V type 1
T10 construct: 15-mer of human 4Ig B7-H3 on the peptide microarray, panel Ig-like-V type 1
T10 peptide: TGALEVQVPEDPVVA
Protocol: as §1

FCLTGALEVQVPEDP = biological target: T11, FCLTGALEVQVPEDP; test: as above
T11 construct: 15-mer of human 4Ig B7-H3 on the peptide microarray, panel Ig-like-V type 1
T11 peptide: FCLTGALEVQVPEDP
Protocol: as §1

GALEVQVPEDPVVAL = biological target: T12, GALEVQVPEDPVVAL; test: as above
T12 construct: 15-mer of human 4Ig B7-H3 on the peptide microarray, panel Ig-like-V type 1
T12 peptide: GALEVQVPEDPVVAL
Protocol: as §1

CLTGALEVQVPEDPV = biological target: T13, CLTGALEVQVPEDPV; test: as above
T13 construct: 15-mer of human 4Ig B7-H3 on the peptide microarray, panel Ig-like-V type 1
T13 peptide: CLTGALEVQVPEDPV
Protocol: as §1

B1: G2D IgG (antibody, V domains shown)
VH: QVQLVESGGGLVQPGGSLRLSCSASGFDFSSYPMVWVRQAPGKGLEYVSSINSGGSWTGYGAAVKGRATISRDNSKNTLYLQMNSLRAEDTATYYCARAYGAATIDAWGQGTTVTVSS
VL: SYELTQPPSVSVSPGQTARITCSGGSIGYGWYQQKAPGQAPVTVIYYNDRRPSGIPERFSGSKSGTTNTLTISGVQAEDEADYYCGSADSSSTYTGIFGGGTKLTVL
notes: The back-substitutions (L46T, S66K, V71N in VL); also called humanized 2D; G2D antibody
- % of cells in the positive gate [1]: > 95%
- fluorescence intensity of the peptide spot (PTGAVEVQVPEDPVV): 142
- fluorescence intensity of the peptide spot (QRSPTGAVEVQVPED): 80
- fluorescence intensity of the peptide spot (TPQRSPTGAVEVQVP): 89.3
- fluorescence intensity of the peptide spot (SPTGAVEVQVPEDPV): 94.8
- fluorescence intensity of the peptide spot (VEVQVPEDPVVALVG): 92.5
- fluorescence intensity of the peptide spot (RSPTGAVEVQVPEDP): 120
- fluorescence intensity of the peptide spot (TGAVEVQVPEDPVVA): 84.5
- fluorescence intensity of the peptide spot (PQRSPTGAVEVQVPE): 92.3
- fluorescence intensity of the peptide spot (GAVEVQVPEDPVVAL): 95
- fluorescence intensity of the peptide spot (TGALEVQVPEDPVVA): 21
- fluorescence intensity of the peptide spot (FCLTGALEVQVPEDP): 63
- fluorescence intensity of the peptide spot (GALEVQVPEDPVVAL): 20
- fluorescence intensity of the peptide spot (CLTGALEVQVPEDPV): 138
